Experiments:
CASV L-Cterm = CASV L-Cterm (California Academy of Sciences virus …, UniProt J7HBG8 1721-2046); assay: EMSA; 5 mM MgCl2; 5 pmol protein, 0.4 pmol RNA; settings: protein: recombinant; tags: N-terminal His-tag (pOPINF), removed by 3C protease; chain copies: 2; label: 32P in cap (alpha-32P-GTP); single strand
CASV L-Cterm domain 2 = CASV L-Cterm domain 2 (California Academy of Sciences virus …, UniProt J7HBG8 1794-1894); assay: EMSA; 5 mM MgCl2; 5 pmol protein, 0.4 pmol RNA; settings: protein: recombinant; tags: N-terminal His-tag, removed by 3C protease; chain copies: 2; label: 32P in cap (alpha-32P-GTP); single strand

AAAAAAAAAAAAAAAAAAAAAAAAAAAAAAAAAAAAAAAA (ssRNA, 5' cap added with capping enzymes (Cellscript)) [capped polyA 40mer RNA]: no binding (CASV L-Cterm); no binding (CASV L-Cterm domain 2).
